± gives the uncertainty stated by the source.
Assay: amyloid nucleation score (Sup35N fusion, yeast selection) (log enrichment); library NNK1; higher = more nucleation; inactive = no reads after selection
Method in brief: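 Nucleation score is defined as the DiMSum log enrichment of output over input reads, with centring on the mode score of non-aggregating sequences. A minimum of 100 input reads was required for each sequence. Reads came from Illumina sequencing of plasmid inserts from psi-negative yeast expressing Sup35N fused to peptides of 20 random codons, induced with 100 μM copper sulfate for 24 hours and grown 7 days at 30°C on medium lacking adenine and uracil.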

Substance | amyloid nucleation score
CSAMPAFWAGHRSGASLHER | 0.017 ± 0.4
CSAYDQVWDTNGRVCFA | -0.003 ± 0.41
CSCINSHLWSTSG | 0.386 ± 0.32
CSDRCTTYCLFSLSDRKRIL | -0.317 ± 0.25
CSEISCPLTKHRCGTLVRVL | -0.761 ± 1.2
CSGSTRVKHFHRFFTNWLLM | 0.323 ± 0.63
CSKVVSSVLVQL | -0.322 ± 0.45
CSLIIFAYRRLEFMILFYFD | -0.26 ± 0.49
CSLVLAIRHATCQEVVVGSC | 0.602 ± 0.6
CSREYDVVGLA | 0.401 ± 0.28
CSSHDQFSAR | -0.214 ± 0.77
CSYCVAENQFMEFRGFMRGP | 0.234 ± 0.34
CTKCYPGVLYYFDCSGPGTR | -0.51 ± 0.65
CTWWSMWNNNWDKFLTREQL | 0.19 ± 1.1
CTWYKFDIGWAEGLGYRDYP | 0.282 ± 1.2
CVHLSKRCKLPVKIISLCLN | 0.767 ± 1
CVHTSVDDGRNYVKNLNDAR | inactive
CVIKHSLRCFAIIGLSHRGG | -0.255 ± 0.97
CVKAD | -0.354 ± 0.54
CVKSYK | 0.48 ± 0.66
CVLFESQ | -0.188 ± 0.44
CVMVVSF | 0.934 ± 0.42

Substance | amyloid nucleation score
CVTLTCLLSSIV | 1.84 ± 0.12
CVWMVETRQWREGFKCMPER | 0.532 ± 0.97
CVWVKGHSRCLTTSLVRRSR | -0.022 ± 0.42
CWDFISCSGQVVNGWSKDSS | -0.008 ± 0.42
CWFANRSLPVQIPRVW | -0.394 ± 0.48
CWIFQDCCQKDCMLFLPCCK | 0.554 ± 0.26
CWLRIGSSFRRARSGWTCDS | -0.834 ± 0.91
CWVETLTICACLTFTFFFWN | 2.48 ± 0.14
CWYWDSPSVGFTAILYYLAG | 0.138 ± 0.57
CYASKMFWVVF | 2.06 ± 0.27
CYLLSRGYWSDMLGKWARGV | 0.131 ± 0.54
CYNNF | inactive
CYVVKVLFRPIY | 1.01 ± 0.97
DACMTGSTLTGYLSTDVGLI | inactive
DAGRWSYPGRCPNMWLRLLM | -0.461 ± 0.68
DARFLSWNANMID | 0.31 ± 0.19
DAWEDGSKMYESLGV | -1.01 ± 0.56
DCCISVSHSGRAALYVKVEI | 0.022 ± 0.46
DCDYGCLKLSEEFGSVSSFR | 0.165 ± 1.4
DCFLCLKVLGMSAVLREWYL | -1.17 ± 0.94
DCGDSKRYVRITMFYFNRII | -0.262 ± 0.34
DCMFYVDRTGRSIGVVSIVE | -0.021 ± 0.28

Substance | amyloid nucleation score
DCNPSWIPFLVCHRIYACWR | 1.41 ± 0.64
DDLACRSQ | 0.614 ± 0.27
DDVYSRYVNEGLGWCFIVYL | inactive
DELGAMMRIFSFSCNP | -0.147 ± 1.1
DENDSGYELYFLGAGHTGSY | -0.157 ± 0.39
DEPMSDLALVFMYYTVYPGG | 0.638 ± 0.55
DESFCVVLFFFLCCLWFCHL | 0.184 ± 0.7
DEVIF | 0.421 ± 0.52
DEWLDPEASERRRGPGDWAL | 0.55 ± 0.74
DFASVEFWLIALPSQMCWFF | 0.056 ± 0.76
DFGLYLNNFCNGMHSFDLFN | -0.378 ± 0.19
DFIKTTQSFQYQRAD | -0.717 ± 0.26
DFMALI | -0.013 ± 0.25
DFNYPDSSCLGFKCLNAHWV | -0.731 ± 0.33
DFSRWIFMTHY | -1.06 ± 0.99
DFSYYLWGMSV | -0.991 ± 2.4
DGDSLGCYWDASLARQCFGR | -0.086 ± 0.29
DGLSFLMEHLCVNTLCKGSR | -0.075 ± 0.34
DGTSPRQLKCMLKFLFDVWD | 2.94 ± 0.2
DGVVCMNAVCFQTMYVMYWL | 6.69 ± 0.08
DHGGVVPSNPGYNMARSLRF | 0.465 ± 0.46
DHMRYSTRRWQYPTSVVLSG | 0.543 ± 0.25

Substance | amyloid nucleation score
DHTHLTTQNDICLMVSFTVE | 2.7 ± 0.096
DIFYLCFRVYSEVGLSINVV | -0.529 ± 0.84
DIIIWSSSRHYNVNCKSNSA | 0.55 ± 0.18
DIMKSSKAHELVQSLPIEKR | 0.248 ± 0.64
DINFNDGICGIKLYCYCISN | -0.713 ± 1.7
DIRVLTPLRITFHLKAQGLL | -0.266 ± 1.4
DIRWGVSFIKGNFHTEL | inactive
DIVHGGYRLWTCKFGDVRYC | -0.162 ± 0.32
DKEYWSVSSVRYTTENGWI | 1.07 ± 0.47
DLCPSGGVSDLCNPYGCFTL | -0.427 ± 0.71
DLDVFYCWGAYLAEGDLVCE | 0.146 ± 0.41
DLHLTNVSTRARPRLGLAAR | 0.705 ± 0.56
DLIWNSSFVRLNVTNPLMFR | inactive
DLLFAVYYELEHGFERVAGR | 4.78 ± 0.081
DLNNGDAKSDRFYGSFLHSW | -0.612 ± 0.32
DLRAVNLNSYSLLDSFTCFF | 5.59 ± 0.06
DLVTH | 0.015 ± 0.83
DLYGACEMWCAENSYGRFSV | 0.107 ± 0.95
DMCNLTRLPLVYFM | -0.037 ± 1.7

Reference: the supplement of paper PMC12042874
